From US20140087995A1 (published 2014) come the findings set out here.

Broadly, the IC50 is the midpoint of a concentration-inhibition curve.

Numbered stars: 1 amine (or outer) side, 2 acyl side, 3 side chain; on linkers, the order of the positions; unused ones are H or OH. Bridge positions count the residues as written; N and C are the ends. * marks the point of attachment. C20 diacid = O=C(O)CCCCCCCCCCCCCCCCCCC(=O)*; γGlu = O=C(O)[C@H](CCC(=O)[*:2])N[*:1]

The labels stand for the following.
T1: human calcitonin receptor (human, UniProt P30988 25-474)
T1 construct: whole, on cells; Used as membranes prepared from the transfected cells (Assay VII); also called hCTR; hCT
T1 sequence (looked up): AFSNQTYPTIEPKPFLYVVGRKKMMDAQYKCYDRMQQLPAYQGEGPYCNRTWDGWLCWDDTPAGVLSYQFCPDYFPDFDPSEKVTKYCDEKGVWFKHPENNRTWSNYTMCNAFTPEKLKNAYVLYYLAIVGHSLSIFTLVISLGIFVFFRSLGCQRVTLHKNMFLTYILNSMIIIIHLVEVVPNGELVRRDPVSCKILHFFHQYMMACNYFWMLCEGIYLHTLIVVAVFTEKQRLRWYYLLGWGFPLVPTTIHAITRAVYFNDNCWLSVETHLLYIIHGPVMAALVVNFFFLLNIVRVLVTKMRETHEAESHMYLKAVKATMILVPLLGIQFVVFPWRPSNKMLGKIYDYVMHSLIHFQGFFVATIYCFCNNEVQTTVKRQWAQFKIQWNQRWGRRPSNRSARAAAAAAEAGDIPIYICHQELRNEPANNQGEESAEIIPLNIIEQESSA

T2: rat calcitonin receptor (rat, UniProt P32214 25-516)
T2 construct: whole, on cells; Used as membranes prepared from the transfected cells; also called rCTR; rat calcitonin (a) receptor
T2 sequence (looked up): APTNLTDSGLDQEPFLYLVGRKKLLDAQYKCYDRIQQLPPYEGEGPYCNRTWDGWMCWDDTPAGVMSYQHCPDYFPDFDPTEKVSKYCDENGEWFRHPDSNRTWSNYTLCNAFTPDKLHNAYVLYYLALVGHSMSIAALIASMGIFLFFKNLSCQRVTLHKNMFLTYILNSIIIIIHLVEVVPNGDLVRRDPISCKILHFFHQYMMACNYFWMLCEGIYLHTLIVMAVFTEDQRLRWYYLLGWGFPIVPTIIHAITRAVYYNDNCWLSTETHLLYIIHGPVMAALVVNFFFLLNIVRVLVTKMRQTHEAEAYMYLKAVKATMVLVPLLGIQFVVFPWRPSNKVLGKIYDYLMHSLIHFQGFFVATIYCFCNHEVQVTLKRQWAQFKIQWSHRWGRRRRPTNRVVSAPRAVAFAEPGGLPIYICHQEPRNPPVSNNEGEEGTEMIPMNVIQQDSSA

T3: rat amylin receptor (rat calcitonin receptor + rat RAMP 3) (rat, UniProt P32214 25-516; Q9JJ73 23-147)
T3 construct: whole, on cells; Used as membranes prepared from the transfected cells; also called rAmylin-R; rat amylin 3(a) receptor
T3 sequence (looked up) 1: T2 sequence (looked up)
T3 sequence (looked up) 2: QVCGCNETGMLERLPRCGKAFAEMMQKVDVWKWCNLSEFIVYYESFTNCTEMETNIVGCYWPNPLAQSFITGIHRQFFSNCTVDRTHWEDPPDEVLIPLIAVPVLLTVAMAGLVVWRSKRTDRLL

B1: N^α1-[(4S)-4-carboxy-4-(19-carboxynonadecanoylamino)butanoyl]-[Glu14,Arg17,Pro21,Pro25,Pro28,Pro29,Pro37]-h-amylin (peptide)
peptide: {C20 diacid-γGlu}-KCNTATCATQRLAEFLRHSSPNFGPILPPTNVGSNTP-NH2
modifications: disulfide 2-7
SMILES: CC[C@H](C)[C@H](NC(=O)[C@@H]1CCCN1C(=O)CNC(=O)[C@H](Cc1ccccc1)NC(=O)[C@H](CC(N)=O)NC(=O)[C@@H]1CCCN1C(=O)[C@H](CO)NC(=O)[C@H](CO)NC(=O)[C@H](Cc1c[nH]cn1)NC(=O)[C@H](CCCNC(=N)N)NC(=O)[C@H](CC(C)C)NC(=O)[C@H](Cc1ccccc1)NC(=O)[C@H](CCC(=O)O)NC(=O)[C@H](C)NC(=O)[C@H](CC(C)C)NC(=O)[C@H](CCCNC(=N)N)NC(=O)[C@H](CCC(N)=O)NC(=O)[C@@H](NC(=O)[C@H](C)NC(=O)[C@@H]1CSSC[C@H](NC(=O)[C@H](CCCCN)NC(=O)CC[C@H](NC(=O)CCCCCCCCCCCCCCCCCCC(=O)O)C(=O)O)C(=O)N[C@@H](CC(N)=O)C(=O)N[C@@H]([C@@H](C)O)C(=O)N[C@@H](C)C(=O)N[C@@H]([C@@H](C)O)C(=O)N1)[C@@H](C)O)C(=O)N[C@@H](CC(C)C)C(=O)N1CCC[C@H]1C(=O)N1CCC[C@H]1C(=O)N[C@H](C(=O)N[C@@H](CC(N)=O)C(=O)N[C@H](C(=O)NCC(=O)N[C@@H](CO)C(=O)N[C@@H](CC(N)=O)C(=O)N[C@H](C(=O)N1CCC[C@H]1C(N)=O)[C@@H](C)O)C(C)C)[C@@H](C)O
notes: Derivative of human amylin; also called compound 4
B2: N^α1-[(4S)-4-carboxy-4-(19-carboxynonadecanoylamino)butanoyl]-[Glu14,Arg17,Pro21,Pro26,Pro37]-h-amylin (peptide)
peptide: {C20 diacid-γGlu}-KCNTATCATQRLAEFLRHSSPNFGAPLSSTNVGSNTP-NH2
modifications: disulfide 2-7
SMILES: CC(C)C[C@H](NC(=O)[C@H](CCCNC(=N)N)NC(=O)[C@H](CCC(N)=O)NC(=O)[C@@H](NC(=O)[C@H](C)NC(=O)[C@@H]1CSSC[C@H](NC(=O)[C@H](CCCCN)NC(=O)CC[C@H](NC(=O)CCCCCCCCCCCCCCCCCCC(=O)O)C(=O)O)C(=O)N[C@@H](CC(N)=O)C(=O)N[C@@H]([C@@H](C)O)C(=O)N[C@@H](C)C(=O)N[C@@H]([C@@H](C)O)C(=O)N1)[C@@H](C)O)C(=O)N[C@@H](C)C(=O)N[C@@H](CCC(=O)O)C(=O)N[C@@H](Cc1ccccc1)C(=O)N[C@@H](CC(C)C)C(=O)N[C@@H](CCCNC(=N)N)C(=O)N[C@@H](Cc1c[nH]cn1)C(=O)N[C@@H](CO)C(=O)N[C@@H](CO)C(=O)N1CCC[C@H]1C(=O)N[C@@H](CC(N)=O)C(=O)N[C@@H](Cc1ccccc1)C(=O)NCC(=O)N[C@@H](C)C(=O)N1CCC[C@H]1C(=O)N[C@@H](CC(C)C)C(=O)N[C@@H](CO)C(=O)N[C@@H](CO)C(=O)N[C@H](C(=O)N[C@@H](CC(N)=O)C(=O)N[C@H](C(=O)NCC(=O)N[C@@H](CO)C(=O)N[C@@H](CC(N)=O)C(=O)N[C@H](C(=O)N1CCC[C@H]1C(N)=O)[C@@H](C)O)C(C)C)[C@@H](C)O
notes: Derivative of human amylin; also called compound 5
B3: N^α1-[(4S)-4-carboxy-4-(19-carboxynonadecanoylamino)butanoyl]-[Glu14,Arg17,Pro21,Pro25,Pro28,Pro29]-h-amylin (peptide)
peptide: {C20 diacid-γGlu}-KCNTATCATQRLAEFLRHSSPNFGPILPPTNVGSNTY-NH2
modifications: disulfide 2-7
SMILES: CC[C@H](C)[C@H](NC(=O)[C@@H]1CCCN1C(=O)CNC(=O)[C@H](Cc1ccccc1)NC(=O)[C@H](CC(N)=O)NC(=O)[C@@H]1CCCN1C(=O)[C@H](CO)NC(=O)[C@H](CO)NC(=O)[C@H](Cc1c[nH]cn1)NC(=O)[C@H](CCCNC(=N)N)NC(=O)[C@H](CC(C)C)NC(=O)[C@H](Cc1ccccc1)NC(=O)[C@H](CCC(=O)O)NC(=O)[C@H](C)NC(=O)[C@H](CC(C)C)NC(=O)[C@H](CCCNC(=N)N)NC(=O)[C@H](CCC(N)=O)NC(=O)[C@@H](NC(=O)[C@H](C)NC(=O)[C@@H]1CSSC[C@H](NC(=O)[C@H](CCCCN)NC(=O)CC[C@H](NC(=O)CCCCCCCCCCCCCCCCCCC(=O)O)C(=O)O)C(=O)N[C@@H](CC(N)=O)C(=O)N[C@@H]([C@@H](C)O)C(=O)N[C@@H](C)C(=O)N[C@@H]([C@@H](C)O)C(=O)N1)[C@@H](C)O)C(=O)N[C@@H](CC(C)C)C(=O)N1CCC[C@H]1C(=O)N1CCC[C@H]1C(=O)N[C@H](C(=O)N[C@@H](CC(N)=O)C(=O)N[C@H](C(=O)NCC(=O)N[C@@H](CO)C(=O)N[C@@H](CC(N)=O)C(=O)N[C@H](C(=O)N[C@@H](Cc1ccc(O)cc1)C(N)=O)[C@@H](C)O)C(C)C)[C@@H](C)O
notes: Derivative of human amylin; also called compound 6
B4: N^α1-[(4S)-4-carboxy-4-(19-carboxynonadecanoylamino)butanoyl]-[Glu14,Arg17,Pro21,Pro27,Arg35]-h-amylin (peptide)
peptide: {C20 diacid-γGlu}-KCNTATCATQRLAEFLRHSSPNFGAIPSSTNVGSRTY-NH2
modifications: disulfide 2-7
SMILES: CC[C@H](C)[C@H](NC(=O)[C@H](C)NC(=O)CNC(=O)[C@H](Cc1ccccc1)NC(=O)[C@H](CC(N)=O)NC(=O)[C@@H]1CCCN1C(=O)[C@H](CO)NC(=O)[C@H](CO)NC(=O)[C@H](Cc1c[nH]cn1)NC(=O)[C@H](CCCNC(=N)N)NC(=O)[C@H](CC(C)C)NC(=O)[C@H](Cc1ccccc1)NC(=O)[C@H](CCC(=O)O)NC(=O)[C@H](C)NC(=O)[C@H](CC(C)C)NC(=O)[C@H](CCCNC(=N)N)NC(=O)[C@H](CCC(N)=O)NC(=O)[C@@H](NC(=O)[C@H](C)NC(=O)[C@@H]1CSSC[C@H](NC(=O)[C@H](CCCCN)NC(=O)CC[C@H](NC(=O)CCCCCCCCCCCCCCCCCCC(=O)O)C(=O)O)C(=O)N[C@@H](CC(N)=O)C(=O)N[C@@H]([C@@H](C)O)C(=O)N[C@@H](C)C(=O)N[C@@H]([C@@H](C)O)C(=O)N1)[C@@H](C)O)C(=O)N1CCC[C@H]1C(=O)N[C@@H](CO)C(=O)N[C@@H](CO)C(=O)N[C@H](C(=O)N[C@@H](CC(N)=O)C(=O)N[C@H](C(=O)NCC(=O)N[C@@H](CO)C(=O)N[C@@H](CCCNC(=N)N)C(=O)N[C@H](C(=O)N[C@@H](Cc1ccc(O)cc1)C(N)=O)[C@@H](C)O)C(C)C)[C@@H](C)O
notes: Derivative of human amylin; also called compound 16
B5: N^α1-[(4S)-4-carboxy-4-(19-carboxynonadecanoylamino)butanoyl]-[Glu14,Arg17,Pro21,Pro26]-h-amylin (peptide)
peptide: {C20 diacid-γGlu}-KCNTATCATQRLAEFLRHSSPNFGAPLSSTNVGSNTY-NH2
modifications: disulfide 2-7
SMILES: CC(C)C[C@H](NC(=O)[C@H](CCCNC(=N)N)NC(=O)[C@H](CCC(N)=O)NC(=O)[C@@H](NC(=O)[C@H](C)NC(=O)[C@@H]1CSSC[C@H](NC(=O)[C@H](CCCCN)NC(=O)CC[C@H](NC(=O)CCCCCCCCCCCCCCCCCCC(=O)O)C(=O)O)C(=O)N[C@@H](CC(N)=O)C(=O)N[C@@H]([C@@H](C)O)C(=O)N[C@@H](C)C(=O)N[C@@H]([C@@H](C)O)C(=O)N1)[C@@H](C)O)C(=O)N[C@@H](C)C(=O)N[C@@H](CCC(=O)O)C(=O)N[C@@H](Cc1ccccc1)C(=O)N[C@@H](CC(C)C)C(=O)N[C@@H](CCCNC(=N)N)C(=O)N[C@@H](Cc1c[nH]cn1)C(=O)N[C@@H](CO)C(=O)N[C@@H](CO)C(=O)N1CCC[C@H]1C(=O)N[C@@H](CC(N)=O)C(=O)N[C@@H](Cc1ccccc1)C(=O)NCC(=O)N[C@@H](C)C(=O)N1CCC[C@H]1C(=O)N[C@@H](CC(C)C)C(=O)N[C@@H](CO)C(=O)N[C@@H](CO)C(=O)N[C@H](C(=O)N[C@@H](CC(N)=O)C(=O)N[C@H](C(=O)NCC(=O)N[C@@H](CO)C(=O)N[C@@H](CC(N)=O)C(=O)N[C@H](C(=O)N[C@@H](Cc1ccc(O)cc1)C(N)=O)[C@@H](C)O)C(C)C)[C@@H](C)O
notes: Derivative of human amylin; also called compound 7

In one test the target is T1, human calcitonin receptor. Briefly: ratio IC50 human calcitonin receptor / IC50 human amylin receptor (Assays VII and V). An outline of the steps: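 Scintillation proximity competition binding on cell membranes at 35 ng/μL with SPA beads, in 50 mM Hepes pH 7.4, 1 mM CaCl2, 5 mM MgCl₂, 0.1% OA, 0.02% Tween20. Incubated 120 min at 25° C with shaking. IC₅₀ from one-site competition fit.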
On to B1, for which the “Ratio hCT/hAmylin binding” value is 2.1.

On to B2, for which the “Ratio hCT/hAmylin binding” value is 1.4.

For B3, the “Ratio hCT/hAmylin binding” value worked out at 20.

Turning to B4, the “Ratio hCT/hAmylin binding” value is 19.1.

As for B5, the “Ratio hCT/hAmylin binding” value is 16.5.

In another test the target is T2, rat calcitonin receptor. Briefly: SPA competition with 125I-calcitonin, membranes of BHK cells with rat calcitonin receptor (Assay VIII).
Consider B1, for which the concentration for half-maximal inhibition (IC50) worked out at 4.05 nM.

On to B2, for which the IC50 was found to be 4.65 nM.

For B3, the IC50 was determined as 51.5 nM.

Consider B4, for which the IC50 was determined as 55.2 nM.

For B5, the IC50 was 47.2 nM.

In a further test the target is T2, rat calcitonin receptor. Briefly: ratio IC50 rat calcitonin receptor / IC50 rat amylin receptor (Assays VIII and VI).
As to B1, the “Ratio rCT/rAmylin binding” value amounted to 3.1.

Turning to B2, the “Ratio rCT/rAmylin binding” value turned out to be 3.6.

For B3, the “Ratio rCT/rAmylin binding” value was found to be 21.7.

As to B4, the “Ratio rCT/rAmylin binding” value came to 45.6.

Turning to B5, the “Ratio rCT/rAmylin binding” value is 42.

The next test addresses T3, rat amylin receptor (rat calcitonin …). The test is described as follows: SPA competition with 125I-rat amylin, membranes of BHK cells with rat calcitonin receptor + rat RAMP3 (Assay VI).
Take B1: the IC50 was determined as 1.3 nM.

In the case of B2, the 50% inhibitory concentration (IC50) was determined as 1.3 nM.

Turning to B3, the half-maximal inhibitory concentration (IC50) was determined as 2.37 nM.

Regarding B4, the IC50 amounted to 1.21 nM.

As for B5, the half-maximal inhibitory concentration (IC50) is 1.12 nM.
